Biological target: CENP-A (endogenous, soluble pre-assembly fraction) (human (endogenous in SW480)) (UniProt P49450)
Test: co-IP; CENP-A IP (ACA serum) or mock IP from the soluble fraction (PBS, 0.5% NP-40) of SW480 cells treated 72 hours with control or HJURP siRNA; Western blot for the chaperones

UniProt P49450, sequence (P49450 whole entry): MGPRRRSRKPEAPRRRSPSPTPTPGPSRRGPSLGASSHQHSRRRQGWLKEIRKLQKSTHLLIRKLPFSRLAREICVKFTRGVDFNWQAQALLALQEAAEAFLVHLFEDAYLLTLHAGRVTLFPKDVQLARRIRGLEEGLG

fold increase in the amount bound to CENP-A after HJURP knockdown against control siRNA: 2.4 fold
Substance: HIRA (endogenous) (from UniProt P54198 1-1017) (natural protein)

From article PMC6203356
